Measurements: PMC5433351

B1: SSR, succinic semialdehyde reductase (Metallosphaera sedula DSM 5348) (protein)
chain: MKAAVLHTYKEPLSIEDVNISQPKAGEVKIKVKATGLCHSDVNVFEGKTPVPPPVVAGHEISGIVEEVGPGVTRVKPGDRVISAFIHPCGKCGNCVAGKENLCETFSQVRLKGVMPDGTSRLSKDGKEIRTFLGGGFAEYAIVGENALTRVPEDMDLEKVAVLGCAGLTGYGAISSSKIEPGDTVAVIGVGGVGLSTIQLLRASGAGRIIAVGTKKWKLDRAMELGATDVVNSKEIDPVKAIKEITGGGPQVVIEAGGNEDTIHMALDSVRIGGKVVLVGLPPATAMIPIRVASIVRGGIEVVGNYGGRPRVDMPKLLELVRQGRYDPSRLVTGRFRLEEINEAVKMLEEGEAIRSLIIP
B2: MCR, malonyl-CoA/succinyl-CoA reductase (Metallosphaera sedula DSM 5348) (protein)
chain: MRRTLKAAILGATGLVGIEYVRMLADHPYIKPTYLAGKGSVGKPYGEIVRWQTVGNVPKEVANQEVKPTDPKLMDDVDIIFSPLPQGAAGPVEEQFAKLGFNVISNSPDHRFDMDVPMIIPEVNPHTVTLIDEQRKRRDWKGFIVTTPLCTAQGAAIPLTPIYQNFKMSGVMITTMQSLSGAGYPGIASLDIVDNALPLGDGYDAKTVKEITRILSEVKRNVQEPGVNEITLDATTHRIATIHGHYEVAYVTFKEDTDVRKVMESMESFKGEPQDLKLPTAPEKPIIVTTQDARPQVFFDRWAGNPPGMSVVVGRLKQVNPRTIRFVSLIHNTVRGAAGGGVLTAELLVEKGYIDKR

Tests used:
Assay type in all cases: biochemical, Metallosphaera sedula
[1] = substrate: O=CCCC(=O)O; test: purified protein; conditions: NADPH 0.5 mM, MgCl2 5 mM, DTT 5 mM, pH 6.5, 65°C
[2] = substrate: CC(C)(COP(=O)(O)OP(=O)(O)OC[C@H]1O[C@@H](n2cnc3c(N)ncnc32)[C@H](O)[C@@H]1OP(=O)(O)O)[C@@H](O)C(=O)NCCC(=O)NCCSC(=O)CCC(=O)O; test: NADPH consumption, spectrophotometric; conditions: NADPH 0.5 mM, MgCl2 5 mM, DTT 4 mM, pH 6.5, 65°C
[3] = substrate: NC(=O)C1=CN([C@@H]2O[C@H](COP(=O)(O)OP(=O)(O)OC[C@H]3O[C@@H](n4cnc5c(N)ncnc54)[C@H](OP(=O)(O)O)[C@@H]3O)[C@@H](O)[C@H]2O)C=CC1; test: NADPH consumption, spectrophotometric; conditions: succinyl-CoA as substrate, pH 6.5, 65°C, varied: cofactor

| Protein | Km [1] [µM] | Vmax [1] [µmol/min/mg] | kcat/Km [1] [M⁻¹ s⁻¹] | Km [2] [µM] | Vmax [2] [µmol/min/mg] | kcat/Km [2] [M⁻¹ s⁻¹] | Km [3] [µM] | Vmax [3] [µmol/min/mg] | kcat/Km [3] [M⁻¹ s⁻¹] |
| --- | --- | --- | --- | --- | --- | --- | --- | --- | --- |
| B1 | 27 | 683 | 1.6e+07 | – | – | – | – | – | – |
| B2 | – | – | – | 191 | 15.9 | 54500 | 79.2 | 13.1 | 109000 |
